One molecule from publication PMC4786724, “NdhM Subunit Is Required for the Stability and the Function of NAD(P)H Dehydrogenase Complexes Involved in CO2 Uptake in Synechocystis sp. Strain PCC 6803* ^([image sbox.jpg])” (The Journal of Biological Chemistry, 2015) can be followed below.

One test addresses T1, NdhI-His6 (Synechocystis sp. PCC 6803, UniProt P26525 1-193).
T1 construct: NdhI subunit of NDH-1, Synechocystis sp; PCC 6803; fragment containing ndhI cloned into pET28a; also called His-tagged NdhI; source: E. coli BL21(DE3) pLysS, purified (nickel column)
As to the kind of experiment: pull-down; GST-NdhM on glutathione-Sepharose 4B resin as bait, His-tagged Ndh subunits as prey; 2 h at 4 °C in 20 mM Tris-HCl pH 7.5, 100 mM NaCl, 0.1 mM EDTA, 0.2% Triton, 10% glycerol; washed five times with 300 mM NaCl, 0.5% Nonidet P-40; eluates blotted with anti-His antibody. The settings on record: both partners purified.

The target of a further test is T2, NdhH-His6 (Synechocystis sp. PCC 6803, UniProt P27724 1-394).
T2 construct: NdhH subunit of NDH-1, Synechocystis sp; PCC 6803; fragment containing ndhH cloned into pET28a; also called His-tagged NdhH; source: E. coli BL21(DE3) pLysS, purified (nickel column)
T2 sequence (looked up): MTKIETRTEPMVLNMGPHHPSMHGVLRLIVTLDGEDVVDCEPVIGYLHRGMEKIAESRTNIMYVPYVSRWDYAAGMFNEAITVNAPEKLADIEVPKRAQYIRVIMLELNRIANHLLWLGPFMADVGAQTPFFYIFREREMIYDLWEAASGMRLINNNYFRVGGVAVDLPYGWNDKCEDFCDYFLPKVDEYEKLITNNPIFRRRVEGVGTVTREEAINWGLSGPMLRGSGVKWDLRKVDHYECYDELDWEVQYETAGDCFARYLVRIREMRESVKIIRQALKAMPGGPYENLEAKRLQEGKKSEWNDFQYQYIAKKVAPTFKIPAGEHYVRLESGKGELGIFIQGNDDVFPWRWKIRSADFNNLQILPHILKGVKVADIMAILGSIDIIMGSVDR
Described as above. Conditions: both partners purified.

T1 sequence (P26525 whole entry, the tested form may be a part): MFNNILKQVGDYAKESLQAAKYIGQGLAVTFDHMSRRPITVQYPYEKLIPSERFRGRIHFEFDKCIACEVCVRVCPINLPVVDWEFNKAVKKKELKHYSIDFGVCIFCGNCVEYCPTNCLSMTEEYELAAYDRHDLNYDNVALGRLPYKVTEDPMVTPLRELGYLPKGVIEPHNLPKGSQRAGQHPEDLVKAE

B1: GST-NdhM (natural protein, Synechocystis sp. PCC 6803, UniProt P74338 1-121, looked up)
chain: MLVKSTTRHVRIFSAEVQGNELIPSNNVLTMDVDPDNEFVWNEDALQQVYRRFDELVESYSGEDLTDYNLRRIGSDLEHFIRDLLQAGKVSYNLDCRVLNYSMGLPKVENQETAGKYWLDN
notes: NdhM subunit of NDH-1, Synechocystis sp; PCC 6803, gene slr1623 (ndhM); fragment containing ndhM cloned into pGEX-4T-1; also called recombinant NdhM fused with GST; NdhM fused to GST; source: E. coli BL21(DE3) pLysS, purified (glutathione-Sepharose 4B column)
B1: the binding result with NdhI-His6 and with NdhH-His6 was “binds” in each case.
